This note sets out measurements from PMC6071955.

Experiment [1] concerns the target FusC(E83A) mutant, catalytically inactive (Pectobacterium (species and strain of the cloned gene not stated)). Put plainly: ITC; ferredoxin (200 uM) titrated in 10 ul steps, 27 titrations, into the chamber with FusC(E83A) (20 uM); 20 mM HEPES, 50 mM NaCl pH 7.5; MicroCal VP-ITC; 299.15 K (Table 2); parameters from the average of the two best of three reactions.
The target is the same in experiment [2]. Described as above. The source holds these as a separate data set.

pKd: −log10 of the molar value. Several values for one entry are separate records, joined by “and”; a condition that tells them apart may be missing. Identical values can stand only once. Like-named read-outs stand apart in the source and are kept apart here.

Turning to “ferredoxin from the plant Arabidopsis thaliana (from UniProt P16972 53-145) (natural protein)”, in experiment [1], the pKd was 5.72. Also, in experiment [2], the Ka is 452000 M⁻¹ and 805000 M⁻¹ and 629000 M⁻¹; the pKd was 5.91 and 5.76 and 5.66; the dH was -5.2 kcal/mol and -4.91 kcal/mol and -5.06 kcal/mol; the stoichiometry N was 1.12 and 1.06 and 1.09.
